From article PMC3478540 (Diabetes, 2012)

Target: GRP78 in membrane fractions of mouse liver (mouse (endogenous in liver), UniProt P20029 20-655)
Assay: radioligand binding

Sequence of GRP78 in membrane fractions of mouse liver (P20029 20-655): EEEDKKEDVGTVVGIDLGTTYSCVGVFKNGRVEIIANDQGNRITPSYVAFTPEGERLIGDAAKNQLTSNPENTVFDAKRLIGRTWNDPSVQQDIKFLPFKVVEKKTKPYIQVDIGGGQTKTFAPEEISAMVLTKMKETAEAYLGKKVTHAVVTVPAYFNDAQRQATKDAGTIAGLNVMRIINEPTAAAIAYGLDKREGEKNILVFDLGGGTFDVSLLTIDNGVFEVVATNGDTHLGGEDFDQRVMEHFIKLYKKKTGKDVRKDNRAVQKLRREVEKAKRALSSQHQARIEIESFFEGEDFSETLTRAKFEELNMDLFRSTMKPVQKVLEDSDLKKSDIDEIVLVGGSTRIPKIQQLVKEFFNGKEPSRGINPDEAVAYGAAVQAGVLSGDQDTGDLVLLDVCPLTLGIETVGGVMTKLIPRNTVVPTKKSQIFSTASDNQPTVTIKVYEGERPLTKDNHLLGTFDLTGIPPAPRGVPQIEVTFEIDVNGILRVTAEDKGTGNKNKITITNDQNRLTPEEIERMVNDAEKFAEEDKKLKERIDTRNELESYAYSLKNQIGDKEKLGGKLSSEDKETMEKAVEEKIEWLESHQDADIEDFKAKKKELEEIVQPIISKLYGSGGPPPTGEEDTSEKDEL

B1: ^125I-vaspin (iodinated rhVaspin) (natural protein, human, UniProt Q8IW75 21-414, looked up)
chain: LKPSFSPRNYKALSEVQGWKQRMAAKELARQNMDLGFKLLKKLAFYNPGRNIFLSPLSISTAFSMLCLGAQDSTLDEIKQGFNFRKMPEKDLHEGFHYIIHELTQKTQDLKLSIGNTLFIDQRLQPQRKFLEDAKNFYSAETILTNFQNLEMAQKQINDFISQKTHGKINNLIENIDPGTVMLLANYIFFRARWKHEFDPNVTKEEDFFLEKNSSVKVPMMFRSGIYQVGYDDKLSCTILEIPYQKNITAIFILPDEGKLKHLEKGLQVDTFSRWKTLLSRRVVDVSVPRLHMTGTFDLKKTLSYIGVSKIFEEHGDLTKIAPHRSLKVGEAVHKAELKMDERGTEGAAGTGAQTLPMETPLVVKIDKPYLLLIYSEKIPSVLFLGKIVNPIGK
modifications: 125I-iodinated, residues not stated
Kd: 22.2 nM
